Measured values published in patent US5453362, “Eukaryotic transcription protein; host cell factor” (Tularik Inc.).

Assays:
[1] = target: GST-VP16 with insect extract, no Oct-1 POU (Herpes simplex virus, UniProt P06492 P06492:5-411); assay: EMSA; no specific complex with SL2 or Sf9 extract without Oct-1 POU; conditions: tags: GST; label: 32P end
[2] = target: VP16-induced complex: Oct-1 POU domain + GST-VP16 + partially purified human HCF (Homo sapiens / Herpes simplex virus, UniProt P14859;P06492;P51610 P14859:280-438,P06492:5-411,P51610:2-2035); assay: EMSA; 50 mM KCl, pH 7.9, 1 mM EDTA, 30 C; complex disrupted by anti-HCF sera (FIG. 4, WGA fraction); conditions: tags: GST on VP16; Oct-1 POU recombinant from E. coli, GST removed by thrombin; label: 32P end
Chain of VP16-induced complex: Oct-1 POU domain + GST-VP16 + partially purified human HCF (P14859 280-438, chain 1 of 3): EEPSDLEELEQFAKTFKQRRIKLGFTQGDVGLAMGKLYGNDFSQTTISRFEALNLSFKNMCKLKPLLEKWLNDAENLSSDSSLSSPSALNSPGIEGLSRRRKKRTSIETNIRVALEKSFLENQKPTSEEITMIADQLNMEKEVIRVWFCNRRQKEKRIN
Chain of VP16-induced complex: Oct-1 POU domain + GST-VP16 + partially purified human HCF (P06492 5-411, chain 2 of 3): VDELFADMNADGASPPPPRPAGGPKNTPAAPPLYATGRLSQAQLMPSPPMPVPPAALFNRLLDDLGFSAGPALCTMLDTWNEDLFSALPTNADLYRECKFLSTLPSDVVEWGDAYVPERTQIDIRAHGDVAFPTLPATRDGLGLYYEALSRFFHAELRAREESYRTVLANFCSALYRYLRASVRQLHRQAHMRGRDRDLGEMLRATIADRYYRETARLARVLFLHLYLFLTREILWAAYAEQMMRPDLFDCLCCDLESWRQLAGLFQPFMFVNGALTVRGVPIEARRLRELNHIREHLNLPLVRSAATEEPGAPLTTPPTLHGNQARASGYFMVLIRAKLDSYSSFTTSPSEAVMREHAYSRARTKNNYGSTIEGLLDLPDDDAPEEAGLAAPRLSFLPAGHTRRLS
Chain of VP16-induced complex: Oct-1 POU domain + GST-VP16 + partially purified human HCF (P51610 2-2035, chain 3 of 3): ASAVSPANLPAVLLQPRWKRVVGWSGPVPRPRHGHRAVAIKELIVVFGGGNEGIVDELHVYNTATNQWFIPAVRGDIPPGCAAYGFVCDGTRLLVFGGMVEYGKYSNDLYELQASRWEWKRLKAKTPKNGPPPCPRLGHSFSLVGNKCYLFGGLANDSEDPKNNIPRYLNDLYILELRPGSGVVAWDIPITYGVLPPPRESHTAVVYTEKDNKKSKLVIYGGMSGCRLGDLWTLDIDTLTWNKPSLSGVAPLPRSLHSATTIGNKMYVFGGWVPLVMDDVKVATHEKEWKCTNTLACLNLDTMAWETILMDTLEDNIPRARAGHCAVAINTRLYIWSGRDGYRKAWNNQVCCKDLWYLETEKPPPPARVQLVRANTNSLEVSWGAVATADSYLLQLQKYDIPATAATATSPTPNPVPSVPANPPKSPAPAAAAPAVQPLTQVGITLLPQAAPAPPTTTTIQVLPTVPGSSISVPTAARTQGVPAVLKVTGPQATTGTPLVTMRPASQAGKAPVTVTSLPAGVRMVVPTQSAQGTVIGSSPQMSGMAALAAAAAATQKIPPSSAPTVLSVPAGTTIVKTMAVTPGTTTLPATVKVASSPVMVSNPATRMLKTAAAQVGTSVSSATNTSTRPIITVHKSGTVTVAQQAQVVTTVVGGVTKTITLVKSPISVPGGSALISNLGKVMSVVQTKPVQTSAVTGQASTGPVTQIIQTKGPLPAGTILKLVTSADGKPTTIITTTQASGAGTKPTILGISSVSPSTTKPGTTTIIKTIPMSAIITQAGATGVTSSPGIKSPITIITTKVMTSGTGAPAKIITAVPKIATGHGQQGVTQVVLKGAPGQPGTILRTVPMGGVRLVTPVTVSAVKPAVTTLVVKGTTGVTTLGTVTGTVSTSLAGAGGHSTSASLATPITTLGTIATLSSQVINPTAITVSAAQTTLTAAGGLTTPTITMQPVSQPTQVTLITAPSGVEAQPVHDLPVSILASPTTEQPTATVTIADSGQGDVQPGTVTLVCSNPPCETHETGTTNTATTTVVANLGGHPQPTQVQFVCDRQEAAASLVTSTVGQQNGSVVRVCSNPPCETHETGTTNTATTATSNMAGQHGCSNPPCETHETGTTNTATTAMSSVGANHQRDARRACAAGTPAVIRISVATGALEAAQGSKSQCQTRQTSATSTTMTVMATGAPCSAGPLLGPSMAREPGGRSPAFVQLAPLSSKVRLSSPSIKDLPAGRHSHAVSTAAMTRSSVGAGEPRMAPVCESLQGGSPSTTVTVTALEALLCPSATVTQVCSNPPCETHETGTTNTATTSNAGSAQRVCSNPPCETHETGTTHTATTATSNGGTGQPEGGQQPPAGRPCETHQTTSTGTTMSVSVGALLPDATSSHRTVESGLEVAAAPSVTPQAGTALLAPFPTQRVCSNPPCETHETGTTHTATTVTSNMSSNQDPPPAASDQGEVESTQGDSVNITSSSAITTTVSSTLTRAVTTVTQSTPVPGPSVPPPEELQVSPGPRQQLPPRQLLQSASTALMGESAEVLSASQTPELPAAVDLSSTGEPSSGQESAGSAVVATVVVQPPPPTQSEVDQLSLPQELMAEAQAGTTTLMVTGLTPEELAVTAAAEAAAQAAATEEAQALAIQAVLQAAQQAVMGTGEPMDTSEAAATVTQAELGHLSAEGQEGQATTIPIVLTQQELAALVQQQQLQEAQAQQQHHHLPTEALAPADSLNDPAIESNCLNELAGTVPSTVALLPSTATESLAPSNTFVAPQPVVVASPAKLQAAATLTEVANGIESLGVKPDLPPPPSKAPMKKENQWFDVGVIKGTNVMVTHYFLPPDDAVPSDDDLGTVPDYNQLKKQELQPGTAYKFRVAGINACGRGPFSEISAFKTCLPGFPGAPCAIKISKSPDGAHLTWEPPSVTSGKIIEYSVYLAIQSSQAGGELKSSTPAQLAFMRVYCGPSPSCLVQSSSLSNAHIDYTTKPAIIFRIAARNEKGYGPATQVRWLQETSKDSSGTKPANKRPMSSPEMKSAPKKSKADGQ

Chain of GST-VP16 with insect extract, no Oct-1 POU (P06492 5-411, one chain of several): as the sequence (P06492 5-411, chain 2 of 3) above

B1: (Octa+)… ICP0 IE element (dsDNA)
DNA 1: ATGCTAATGATAT
DNA 2: ATATCATTAGCAT
binding result [1]: no binding
binding result [2]: binds
